{"source": "patent US20010010923A1", "about": "“MODIFIED CARBOXYPEPTIDASE” (priority 1997, published 2001)", "key": {"[1]": {"test": "Transpeptidation of FA-Ala-Xaa-OH with H-Gly-NH2, Table 2", "type": "biochemical", "settings": "for Fraction of aminolysis (fa), P1' Ala: FA-Ala-Ala-OH 0.2 mM; for Fraction of aminolysis (fa), P1' Ala / Fraction of aminolysis (fa), P1' Leu / Fraction of aminolysis (fa), P1' Met / Fraction of aminolysis (fa), P1' Phe / Fraction of aminolysis (fa), P1' Val: 1.9 M H-Gly-NH2, pH 7.5, room temperature; for Fraction of aminolysis (fa), P1' Leu: FA-Ala-Leu-OH 0.2 mM; for Fraction of aminolysis (fa), P1' Met: FA-Ala-Met-OH 0.2 mM; for Fraction of aminolysis (fa), P1' Phe: FA-Ala-Phe-OH 0.2 mM; for Fraction of aminolysis (fa), P1' Val: FA-Ala-Val-OH 0.2 mM; for fraction of aminolysis compared to wild type, in words: larger, hydrophobic leaving group such as leucine", "description": "(§1) Transamidation reactions were carried out generally as described in PCT Application WO 95/20039. In general, the method included dissolving the nucleophile (H-Leu-NH2, unless otherwise indicated) in 50 mM HEPES, 5 mM EDTA and adjusting the pH to 7.5, 5 μl of peptide substrate (8 mM Bz-G-A-R-A-R-A-OH, unless otherwise indicated, in methanol) was added to 190 μl nucleophile solution followed by 5 μl enzyme, resulting in a substrate concentration of 0.2 mM.\n(§2) During the reaction, 20 μl aliquots were removed from the reaction mixture and added to 50 μl 1% trifluoroacetic acid to quench the reaction. The reactant composition was determined by HPLC using a Waters HPLC equipped with a C-18 Waters Novapac 4μ reverse phase column and various gradients of acetonitrile in 0.1% trifluoroacetic acid. The separation was monitored at 254 nm allowing the direct quantification of the products from the integrated peak areas. The composition of the reaction mixture was determined at least twvice during the reaction, the first when 20-50% (preferably 35%) of the substrate had been consumed in the reaction and the second time when 50-90% (preferably 80%) of the peptide substrate had been consumed.\n(§3) The fraction of aminolysis (fa) was expressed as the ratio between the formed aminolysis product and the sum of all products formed. Unconsumed substrate was disregarded in the calculations.\nSite specific mutagenesis was performed as described for Example 1 to produce the S1 mutants used below.\nTransamidation reactions were performed as described for Example 1."}, "[2]": {"test": "Transpeptidation of FA-Ala-OBzl with H-Leu-NH2, Table 3", "type": "biochemical", "settings": "FA-Ala-OBzl 0.2 mM, pH 7.5; for fa: H-Leu-NH2; for KN(app): nucleophile H-Leu-NH2 concentration at which fa is half of maximum", "description": "as §1, §2, §3\nSite specific mutagenesis was performed as described in Example 1 to produce the specific substitution mutants described below. Transamidation reactions were performed as described for Example 1.\nIn table 3, below, KN(app) represents the nucleophile concentration at which fa is half of the maximum value (a measure for the dissociation constant of the nucleophile). famax is the highest possible fa obtained at saturation of the enzyme with the nucleophile.\nKN(app) indicates the concentration at which famax/2 is reached and thus describes the apparent binding constant of the nucleophile. Because the competing hydrolysis reaction is thought to occur while the leaving group remains attached to the to the acyl-enzyme intermediate, a low KN(app) is preferred."}}, "note": "Marks after values point to notes of the source that are not given here.", "data": [{"molecule": "T60Y + M398Y: carboxypeptidase Y double substitution mutant T60Y + M398Y (protein, UniProt P00729 112-532, looked up, variant T60Y M398Y) Carboxypeptidase Y: KIKDPKILGIDPNVTQYTGYLDVEDEDKHFFFWTFESRNDPAKDPVILWLNGGPGCSSLYGLFFELGPSSIGPDLKPIGNPYSWNSNATVIFLDQPVNVGFSYSGSSGVSNTVAAGKDVYNFLELFFDQFPEYVNKGQDFHIAGESYAGHYIPVFASEILSHKDRNFNLTSVLIGNGLTDPLTQYNYYEPMACGEGGEPSVLPSEECSAMEDSLERCLGLIESCYDSQSVWSCVPATIYCNNAQLAPYQRTGRNVYDIRKDCEGGNLCYPTLQDIDDYLNQDYVKEAVGAEVDHYESCNFDINRNFLFAGDWMKPYHTAVTDLLNQDLPILVYAGDKDFICNWLGNKAWTDVLPWKYDEEFASQKVRNWTASITDEVAGEVKSYKHFTYLRVFNGGHYVPFDVPENALSMVNEWIHGGFSL", "values": [{"measurement": "Fraction of aminolysis (fa), P1' Ala", "setting": "[1]", "value": 0.74}, {"measurement": "Fraction of aminolysis (fa), P1' Leu", "setting": "[1]", "value": 0.77}, {"measurement": "Fraction of aminolysis (fa), P1' Met", "setting": "[1]", "value": 0.76}, {"measurement": "Fraction of aminolysis (fa), P1' Phe", "setting": "[1]", "value": 0.75}, {"measurement": "Fraction of aminolysis (fa), P1' Val", "setting": "[1]", "value": 0.74}, {"measurement": "fraction of aminolysis compared to wild type, in words", "setting": "[1]", "value": "further improved the fraction of aminolysis"}, {"measurement": "fa", "setting": "[2]", "value": "0.99^a"}, {"measurement": "KN(app)", "setting": "[2]", "value": "5.4^b mM"}]}, {"molecule": "T60E: carboxypeptidase Y S1' mutant, substitution T60E (protein, UniProt P00729 112-532, looked up, variant T60E) Carboxypeptidase Y: KIKDPKILGIDPNVTQYTGYLDVEDEDKHFFFWTFESRNDPAKDPVILWLNGGPGCSSLEGLFFELGPSSIGPDLKPIGNPYSWNSNATVIFLDQPVNVGFSYSGSSGVSNTVAAGKDVYNFLELFFDQFPEYVNKGQDFHIAGESYAGHYIPVFASEILSHKDRNFNLTSVLIGNGLTDPLTQYNYYEPMACGEGGEPSVLPSEECSAMEDSLERCLGLIESCYDSQSVWSCVPATIYCNNAQLAPYQRTGRNVYDIRKDCEGGNLCYPTLQDIDDYLNQDYVKEAVGAEVDHYESCNFDINRNFLFAGDWMKPYHTAVTDLLNQDLPILVYAGDKDFICNWLGNKAWTDVLPWKYDEEFASQKVRNWTASITDEVAGEVKSYKHFTYLRVFNGGHMVPFDVPENALSMVNEWIHGGFSL", "values": [{"measurement": "Fraction of aminolysis (fa), P1' Ala", "setting": "[1]", "value": 0.82}, {"measurement": "Fraction of aminolysis (fa), P1' Leu", "setting": "[1]", "value": 0.05}, {"measurement": "Fraction of aminolysis (fa), P1' Met", "setting": "[1]", "value": 0.07}, {"measurement": "Fraction of aminolysis (fa), P1' Phe", "setting": "[1]", "value": 0.02}, {"measurement": "Fraction of aminolysis (fa), P1' Val", "setting": "[1]", "value": 0.33}, {"measurement": "fa", "setting": "[2]", "value": "0.94^a"}, {"measurement": "KN(app)", "setting": "[2]", "value": "2.0^b mM"}]}, {"molecule": "T60D + M398Y: carboxypeptidase Y double substitution mutant T60D + M398Y (protein, UniProt P00729 112-532, looked up, variant T60D M398Y) Carboxypeptidase Y: KIKDPKILGIDPNVTQYTGYLDVEDEDKHFFFWTFESRNDPAKDPVILWLNGGPGCSSLDGLFFELGPSSIGPDLKPIGNPYSWNSNATVIFLDQPVNVGFSYSGSSGVSNTVAAGKDVYNFLELFFDQFPEYVNKGQDFHIAGESYAGHYIPVFASEILSHKDRNFNLTSVLIGNGLTDPLTQYNYYEPMACGEGGEPSVLPSEECSAMEDSLERCLGLIESCYDSQSVWSCVPATIYCNNAQLAPYQRTGRNVYDIRKDCEGGNLCYPTLQDIDDYLNQDYVKEAVGAEVDHYESCNFDINRNFLFAGDWMKPYHTAVTDLLNQDLPILVYAGDKDFICNWLGNKAWTDVLPWKYDEEFASQKVRNWTASITDEVAGEVKSYKHFTYLRVFNGGHYVPFDVPENALSMVNEWIHGGFSL", "values": [{"measurement": "Fraction of aminolysis (fa), P1' Ala", "setting": "[1]", "value": 0.70}, {"measurement": "Fraction of aminolysis (fa), P1' Leu", "setting": "[1]", "value": 0.75}, {"measurement": "Fraction of aminolysis (fa), P1' Met", "setting": "[1]", "value": 0.72}, {"measurement": "Fraction of aminolysis (fa), P1' Phe", "setting": "[1]", "value": 0.56}, {"measurement": "Fraction of aminolysis (fa), P1' Val", "setting": "[1]", "value": 0.71}, {"measurement": "fraction of aminolysis compared to wild type, in words", "setting": "[1]", "value": "further improved the fraction of aminolysis"}, {"measurement": "fa", "setting": "[2]", "value": "0.89^a"}, {"measurement": "KN(app)", "setting": "[2]", "value": "9.2^c mM"}]}, {"molecule": "M398R: carboxypeptidase Y S1' mutant, substitution M398R (protein, UniProt P00729 112-532, looked up, variant M398R) Carboxypeptidase Y: KIKDPKILGIDPNVTQYTGYLDVEDEDKHFFFWTFESRNDPAKDPVILWLNGGPGCSSLTGLFFELGPSSIGPDLKPIGNPYSWNSNATVIFLDQPVNVGFSYSGSSGVSNTVAAGKDVYNFLELFFDQFPEYVNKGQDFHIAGESYAGHYIPVFASEILSHKDRNFNLTSVLIGNGLTDPLTQYNYYEPMACGEGGEPSVLPSEECSAMEDSLERCLGLIESCYDSQSVWSCVPATIYCNNAQLAPYQRTGRNVYDIRKDCEGGNLCYPTLQDIDDYLNQDYVKEAVGAEVDHYESCNFDINRNFLFAGDWMKPYHTAVTDLLNQDLPILVYAGDKDFICNWLGNKAWTDVLPWKYDEEFASQKVRNWTASITDEVAGEVKSYKHFTYLRVFNGGHRVPFDVPENALSMVNEWIHGGFSL", "values": [{"measurement": "Fraction of aminolysis (fa), P1' Ala", "setting": "[1]", "value": 0.48}, {"measurement": "Fraction of aminolysis (fa), P1' Leu", "setting": "[1]", "value": 0.16}, {"measurement": "Fraction of aminolysis (fa), P1' Met", "setting": "[1]", "value": 0.33}, {"measurement": "Fraction of aminolysis (fa), P1' Phe", "setting": "[1]", "value": 0.11}, {"measurement": "Fraction of aminolysis (fa), P1' Val", "setting": "[1]", "value": 0.26}, {"measurement": "fa", "setting": "[2]", "value": "0.39^b"}, {"measurement": "KN(app)", "setting": "[2]", "value": "9.9^c mM"}]}, {"molecule": "T60F: carboxypeptidase Y S1' mutant, substitution T60F (protein, UniProt P00729 112-532, looked up, variant T60F) Carboxypeptidase Y: KIKDPKILGIDPNVTQYTGYLDVEDEDKHFFFWTFESRNDPAKDPVILWLNGGPGCSSLFGLFFELGPSSIGPDLKPIGNPYSWNSNATVIFLDQPVNVGFSYSGSSGVSNTVAAGKDVYNFLELFFDQFPEYVNKGQDFHIAGESYAGHYIPVFASEILSHKDRNFNLTSVLIGNGLTDPLTQYNYYEPMACGEGGEPSVLPSEECSAMEDSLERCLGLIESCYDSQSVWSCVPATIYCNNAQLAPYQRTGRNVYDIRKDCEGGNLCYPTLQDIDDYLNQDYVKEAVGAEVDHYESCNFDINRNFLFAGDWMKPYHTAVTDLLNQDLPILVYAGDKDFICNWLGNKAWTDVLPWKYDEEFASQKVRNWTASITDEVAGEVKSYKHFTYLRVFNGGHMVPFDVPENALSMVNEWIHGGFSL", "values": [{"measurement": "Fraction of aminolysis (fa), P1' Ala", "setting": "[1]", "value": 0.85}, {"measurement": "Fraction of aminolysis (fa), P1' Leu", "setting": "[1]", "value": 0.17}, {"measurement": "Fraction of aminolysis (fa), P1' Met", "setting": "[1]", "value": 0.21}, {"measurement": "Fraction of aminolysis (fa), P1' Phe", "setting": "[1]", "value": 0.12}, {"measurement": "Fraction of aminolysis (fa), P1' Val", "setting": "[1]", "value": 0.15}, {"measurement": "fa", "setting": "[2]", "value": "0.98^a"}]}, {"molecule": "T60C: carboxypeptidase Y S1' mutant, substitution T60C (protein, UniProt P00729 112-532, looked up, variant T60C) Carboxypeptidase Y: KIKDPKILGIDPNVTQYTGYLDVEDEDKHFFFWTFESRNDPAKDPVILWLNGGPGCSSLCGLFFELGPSSIGPDLKPIGNPYSWNSNATVIFLDQPVNVGFSYSGSSGVSNTVAAGKDVYNFLELFFDQFPEYVNKGQDFHIAGESYAGHYIPVFASEILSHKDRNFNLTSVLIGNGLTDPLTQYNYYEPMACGEGGEPSVLPSEECSAMEDSLERCLGLIESCYDSQSVWSCVPATIYCNNAQLAPYQRTGRNVYDIRKDCEGGNLCYPTLQDIDDYLNQDYVKEAVGAEVDHYESCNFDINRNFLFAGDWMKPYHTAVTDLLNQDLPILVYAGDKDFICNWLGNKAWTDVLPWKYDEEFASQKVRNWTASITDEVAGEVKSYKHFTYLRVFNGGHMVPFDVPENALSMVNEWIHGGFSL", "values": [{"measurement": "Fraction of aminolysis (fa), P1' Ala", "setting": "[1]", "value": 0.92}, {"measurement": "Fraction of aminolysis (fa), P1' Leu", "setting": "[1]", "value": 0.19}, {"measurement": "Fraction of aminolysis (fa), P1' Met", "setting": "[1]", "value": 0.15}, {"measurement": "Fraction of aminolysis (fa), P1' Phe", "setting": "[1]", "value": 0.08}, {"measurement": "Fraction of aminolysis (fa), P1' Val", "setting": "[1]", "value": 0.27}, {"measurement": "fa", "setting": "[2]", "value": "0.98^a"}]}]}
